Measured values as given in patent publication US20070166308A1 (Amgen, published 2007).

Experiments:
VCAM (Panvera) = target: T1, VCAM (Panvera) (UniProt P19320 25-698, limits assumed); assay: cell-based or functional assay
T1 sequence (looked up): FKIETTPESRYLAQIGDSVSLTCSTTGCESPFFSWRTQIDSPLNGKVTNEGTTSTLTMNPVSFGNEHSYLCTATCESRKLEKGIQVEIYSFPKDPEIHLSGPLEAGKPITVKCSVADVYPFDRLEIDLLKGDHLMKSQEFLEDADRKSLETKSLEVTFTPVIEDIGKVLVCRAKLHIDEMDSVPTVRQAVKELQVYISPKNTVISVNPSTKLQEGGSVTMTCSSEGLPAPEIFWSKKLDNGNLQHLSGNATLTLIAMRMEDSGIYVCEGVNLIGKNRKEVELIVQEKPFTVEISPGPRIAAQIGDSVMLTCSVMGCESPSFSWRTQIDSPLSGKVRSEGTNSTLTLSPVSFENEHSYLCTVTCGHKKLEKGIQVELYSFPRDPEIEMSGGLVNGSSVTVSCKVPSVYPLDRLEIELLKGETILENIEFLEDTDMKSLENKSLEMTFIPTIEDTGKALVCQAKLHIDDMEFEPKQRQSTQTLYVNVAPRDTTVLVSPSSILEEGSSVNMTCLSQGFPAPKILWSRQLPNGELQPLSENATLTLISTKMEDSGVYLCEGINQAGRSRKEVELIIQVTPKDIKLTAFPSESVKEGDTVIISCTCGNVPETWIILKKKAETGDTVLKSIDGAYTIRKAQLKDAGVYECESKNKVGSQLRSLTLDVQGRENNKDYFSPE

[1] = target: Fibronectin cell binding fragment (110 Kd, Europa Bioproducts Ltd, Cat. No. UBF4215-18) (UniProt P02751-1 722-1635); assay: cell-based or functional assay
[2] = target: T2, MAdCAM-IgG1 Fc fusion protein (human); assay: MAdCAM-IgG1 Fc fusion / JY cell adhesion assay, mean IC50
T2 construct: Expressed in CHO-DHFR cells; also called MAdCAM-IgFc; soluble MAdCAM (in the sandwich ELISA)
Description: (§1) The cells were washed twice with RPMI 1640 media (Gibco) containing 2 mM L-glutamine (Gibco) by centrifugation (240 g), resuspending the final cell pellet at 2×10⁶ cells/mL in RPMI 1640 for Calcein AM loading. Calcein AM (Molecular Probes #C-3099) was added to the cells as a 1:200 dilution in DMSO (ca. final concentration 5 μM) and the cells protected from light during the course of the incubation (37° C. for 30 min). During this cell incubation step the antibodies to be tested, were diluted as follows: for single dose testing, the antibodies were made up to 3 μg/mL (1 μg/mL final) in 0.1 mg/mL BSA (Sigma#A3059) in PBS; for full IC₅₀ curves, the antibodies were diluted in 0.1 mg/mL BSA/PBS, with 3 μg/mL (1 μg/mL final) being the top concentration, then doubling dilutions (1:2 ratio) across the plate. The final well of the row was used for determining total binding, so 0.1 mg/ml BSA in PBS was used.
(§2) After blocking, the plate contents were flicked out and 50 μL of antibodies/controls were added to each well and the plate incubated at 37° C. for 20 min. During this time, Calcein-loaded JY cells were washed once with RPMI 1640 media containing 10% fetal bovine serum and once with 1 mg/mL BSA/PBS by centrifugation, resuspending the final cell pellet to 1×10⁶/mL in 1 mg/mL BSA/PBS. 100 μL of cells were added to each well of the U bottomed plate, the plate sealed, briefly centrifuged (1000 rpm for 2 min) and the plate then incubated at 37° C. for 45 min. At the end of this time, the plates were washed with a Skatron plate washer and fluorescence measured using a Wallac Victor² 1420 Multilabel Reader (excitation λ 485 nm, emission λ 535 nm count from top, 8 mm from bottom of plate, for 0.1 sec with normal emission aperture). For each antibody concentration, percent adhesion was expressed as a percentage of maximal fluorescence response in the absence of any antibody minus fluorescence associated with non-specific binding. The IC₅₀ value is defined as the anti-MAdCAM antibody concentration at which the adhesion response is decreased to 50% of the response in the absence of anti-MAdCAM antibody.

[3] = target: T2, MAdCAM-IgG1 Fc fusion protein; assay: adhesion of calcein-loaded α4β7+ JY cells to coated MAdCAM-IgG1 Fc, blocked by antibody
Description: as §1
as §2, with “The IC₅₀ value is defined as the anti-MAdCAM antibody concentration at which the adhesion response is decreased to 50% of the response in the absence of anti-MAdCAM antibody.” left out

T2 sequence (chain, as listed by the source limits assumed): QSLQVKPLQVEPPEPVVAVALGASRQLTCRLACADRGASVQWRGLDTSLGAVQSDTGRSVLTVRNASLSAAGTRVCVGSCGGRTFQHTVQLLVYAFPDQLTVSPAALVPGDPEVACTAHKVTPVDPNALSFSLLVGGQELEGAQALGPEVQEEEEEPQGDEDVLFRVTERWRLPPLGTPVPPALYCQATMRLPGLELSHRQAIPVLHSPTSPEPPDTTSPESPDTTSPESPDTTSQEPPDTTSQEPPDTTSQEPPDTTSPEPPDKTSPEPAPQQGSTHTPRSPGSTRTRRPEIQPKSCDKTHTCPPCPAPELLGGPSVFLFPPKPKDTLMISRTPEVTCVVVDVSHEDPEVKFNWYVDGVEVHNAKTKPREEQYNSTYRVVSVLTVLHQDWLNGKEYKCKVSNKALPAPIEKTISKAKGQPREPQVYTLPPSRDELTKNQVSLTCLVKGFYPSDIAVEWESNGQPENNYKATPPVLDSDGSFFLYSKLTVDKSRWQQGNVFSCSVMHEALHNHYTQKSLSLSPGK
Sequence of Fibronectin cell binding fragment (110 Kd, Europa Bioproducts Ltd, Cat. No. UBF4215-18) (P02751 other isoform, or with tags, fused parts or gaps limits assumed): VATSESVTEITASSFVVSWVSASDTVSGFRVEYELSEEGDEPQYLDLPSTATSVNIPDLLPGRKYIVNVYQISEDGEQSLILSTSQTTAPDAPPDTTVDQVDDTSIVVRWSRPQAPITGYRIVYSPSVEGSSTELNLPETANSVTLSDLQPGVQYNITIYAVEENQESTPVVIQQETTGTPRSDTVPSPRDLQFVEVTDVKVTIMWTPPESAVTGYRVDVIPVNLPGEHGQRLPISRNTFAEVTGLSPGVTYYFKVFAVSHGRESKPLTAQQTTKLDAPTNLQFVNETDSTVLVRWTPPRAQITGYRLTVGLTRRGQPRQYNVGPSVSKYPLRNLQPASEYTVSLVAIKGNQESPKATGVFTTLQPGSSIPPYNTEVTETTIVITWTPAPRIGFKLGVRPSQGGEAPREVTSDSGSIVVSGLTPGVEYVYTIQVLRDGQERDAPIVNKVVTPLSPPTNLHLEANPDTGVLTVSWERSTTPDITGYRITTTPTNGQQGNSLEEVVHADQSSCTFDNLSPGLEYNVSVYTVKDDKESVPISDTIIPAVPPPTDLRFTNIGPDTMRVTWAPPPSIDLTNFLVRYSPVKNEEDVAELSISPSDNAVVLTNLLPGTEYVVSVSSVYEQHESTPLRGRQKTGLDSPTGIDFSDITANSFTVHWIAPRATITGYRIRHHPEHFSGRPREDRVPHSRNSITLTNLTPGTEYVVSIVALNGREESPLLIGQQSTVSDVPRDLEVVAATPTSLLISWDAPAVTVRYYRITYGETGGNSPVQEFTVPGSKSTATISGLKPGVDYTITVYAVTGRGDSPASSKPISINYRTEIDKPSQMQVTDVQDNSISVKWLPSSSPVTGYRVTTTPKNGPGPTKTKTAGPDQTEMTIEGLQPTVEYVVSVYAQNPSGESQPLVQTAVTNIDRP

| inhibition of adhesion of α4β1+/α5β1+ Jurkat T-cells to coated VCAM (VCAM (Panvera)) [fold] | inhibition of adhesion of α4β1+/α5β1+ Jurkat T-cells to coated Fibronectin cell binding fragment [1] [fold] | IC50 [2] [µg/mL] | IC50 [3] [µg/mL] | Binder |
| --- | --- | --- | --- | --- |
| > 100 | > 100 | 0.021 | < 0.1 | anti-MAdCAM monoclonal antibody 7.26.4 (antibody, human IgG2, kappa, V domains shown, fully human IgG2 kappa from hybridoma; signal peptide left out; kappa chain glycosylation confirmed) VH: QVQLVQSGAEVKKPGASVKVSCEASGYTFTSYGIDWVRQAPGQGLEWMGWISVYSGNTNYAQKLQGRVTMSTDTSTSTAYMELRSLRSDDTAVYYCAREGSSSSGDYYYGMDVWGQGTTVTVSS VL: DIVMTQTPLSLSVTPGQPASISCKSNQSLLYSDGKTYLFWYLQKPGQPPQLLIYEVSNRFSGVPDRFSGSGSGTDFTLKISRVEAEDVGVYYCMQSIQLPWTFGQGTKVEIKR |
| > 100 | > 100 | – | < 0.1 | anti-MAdCAM monoclonal antibody 9.8.2 (antibody, human IgG4, kappa, V domains shown, fully human IgG4 kappa from hybridoma; signal peptide left out; kappa chain stained positive for glycosylation) VH: QVQLVESGGGVVQPGRSLRLSCAASGFTFSSYGMHWVRQAPGKGLEWVAVIWYDGSNEYYADSVKGRFTISRDNSKNTLYLQMNSLRAEDTAVYYCARGAYHFAYWGQGTLVTVSS VL: DIQMTQSPSSLSASVGDRVTITCQASQDISNYLNWYQQKPGKAPKLLIYDASNLETGVPSRFSGSGSGTDFTFTISSLQPEDIATYSCQHSDNLSITFGQGTRLEIKR |
